# Measurements reported in patent US20230002480A1.
# B1: N49P23 (antibody, V domains shown)
# VH: QVRLVQSGAGARKTGASMKLSCSTSGYTFTTHHGHFINWVRQARGQGLEWMGWMNPMTGQMNIEGKFQGRVTLTRDIYSDTAYMEMTRLTTGDTGTYYCARGDFGQNYPFHYWGQGSLVIVSS
# VL: LSALTQPASVSGSPGQSVTISCSGTNRYLVSWYQQHPDKAPKLIIYDDNKRPSGISDRFSASRPDDTASLTISGLQTGDEATYWCASYERFGGGTRLTVLS
# Tests used:
# Test in all cases: cell-based or functional assay
# [1] = molecular target: HIV-1 Env of pseudovirus AC10.0.29 (HIV-1)
# [2] = molecular target: HIV-1 Env of pseudovirus Du422.1 (HIV-1)
# [3] = molecular target: HIV-1 Env of pseudovirus BJOX015000.11.5 (HIV-1)
# [4] = molecular target: HIV-1 Env of pseudovirus 3016.v5.c45 (HIV-1)
# [5] = molecular target: HIV-1 Env of pseudovirus 6535.3 (HIV-1)
# [6] = molecular target: HIV-1 Env of pseudovirus REJO4541.67 (HIV-1)
# [7] = molecular target: HIV-1 Env of pseudovirus SC05_8C11_2344 (HIV-1)
# [8] = molecular target: HIV-1 Env of pseudovirus ZM109F.PB4 (HIV-1)
# [9] = molecular target: HIV-1 Env of pseudovirus 62357_14_D3_4589 (HIV-1)
# [10] = molecular target: HIV-1 Env of pseudovirus CNE8 (HIV-1)
# [11] = molecular target: HIV-1 Env of pseudovirus CNE30 (HIV-1)
# [12] = molecular target: HIV-1 Env of pseudovirus Q23.17 (HIV-1)
# [13] = molecular target: HIV-1 Env of pseudovirus C1080.c03 (HIV-1)
# [14] = molecular target: HIV-1 Env of pseudovirus QH0692.42 (HIV-1)
# [15] = molecular target: HIV-1 Env of pseudovirus 6240_08_TA5_4622 (HIV-1)
# [16] = molecular target: HIV-1 Env of pseudovirus Q842.d12 (HIV-1)
# [17] = molecular target: HIV-1 Env of pseudovirus 6952.v1.c20 (HIV-1)
# [18] = molecular target: HIV-1 Env of pseudovirus HIV-001428-2.42 (HIV-1)
# [19] = molecular target: HIV-1 Env of pseudovirus 1006_11_C3_1601 (HIV-1)
# [20] = molecular target: HIV-1 Env of pseudovirus 6480.v4.c25 (HIV-1)
# [21] = molecular target: HIV-1 Env of pseudovirus T278-50 (HIV-1)
# [22] = molecular target: HIV-1 Env of pseudovirus T251-18 (HIV-1)
# [23] = molecular target: HIV-1 Env of pseudovirus ZM247v1(Rev-) (HIV-1)
# [24] = molecular target: HIV-1 Env of pseudovirus CNE21 (HIV-1)
# [25] = molecular target: HIV-1 Env of pseudovirus BJOX025000.01.1 (HIV-1)
# [26] = molecular target: HIV-1 Env of pseudovirus Ce2010_F5 (HIV-1)
# [27] = molecular target: HIV-1 Env of pseudovirus Ce703010054_2A2 (HIV-1)
# [28] = molecular target: HIV-1 Env of pseudovirus 6811.v7.c18 (HIV-1)
# [29] = molecular target: HIV-1 Env of pseudovirus A07412M1.vrc12 (HIV-1)
# [30] = molecular target: HIV-1 Env of pseudovirus RHPA4259.7 (HIV-1)
# [31] = molecular target: HIV-1 Env of pseudovirus 0815.v3.c3 (HIV-1)
# [32] = molecular target: HIV-1 Env of pseudovirus T257-31 (HIV-1)
binder,measurement,setting,value
B1,IC50,[1],> 50 µg/mL
same,IC80,[1],> 50 µg/mL
same,MPI,[1],0
same,IC50,[2],> 50 µg/mL
same,IC80,[2],> 50 µg/mL
same,MPI,[2],4
same,IC50,[3],> 50 µg/mL
same,IC80,[3],> 50 µg/mL
same,MPI,[3],0
same,IC50,[4],0.027 µg/mL
same,IC80,[4],0.092 µg/mL
same,MPI,[4],100
same,IC50,[5],0.127 µg/mL
same,IC80,[5],0.855 µg/mL
same,MPI,[5],100
same,IC50,[6],0.008 µg/mL
same,IC80,[6],0.05 µg/mL
same,MPI,[6],100
same,IC50,[7],0.133 µg/mL
same,IC80,[7],0.548 µg/mL
same,MPI,[7],100
same,IC50,[8],0.039 µg/mL
same,IC80,[8],0.18 µg/mL
same,MPI,[8],100
same,IC50,[9],0.057 µg/mL
same,IC80,[9],0.76 µg/mL
same,MPI,[9],95
same,IC50,[10],6.35 µg/mL
same,IC80,[10],47.3 µg/mL
same,MPI,[10],81
same,IC50,[11],0.143 µg/mL
same,IC80,[11],0.68 µg/mL
same,MPI,[11],100
same,IC50,[12],0.01 µg/mL
same,IC80,[12],0.046 µg/mL
same,MPI,[12],100
same,IC50,[13],1.33 µg/mL
same,IC80,[13],11.3 µg/mL
same,MPI,[13],96
same,IC50,[14],0.557 µg/mL
same,IC80,[14],2.51 µg/mL
same,MPI,[14],100
same,IC50,[15],0.215 µg/mL
same,IC80,[15],1 µg/mL
same,MPI,[15],100
same,IC50,[16],0.007 µg/mL
same,IC80,[16],0.022 µg/mL
same,MPI,[16],100
same,IC50,[17],0.007 µg/mL
same,IC80,[17],0.023 µg/mL
same,MPI,[17],100
same,IC50,[18],0.036 µg/mL
same,IC80,[18],0.241 µg/mL
same,MPI,[18],98
same,IC50,[19],0.015 µg/mL
same,IC80,[19],0.054 µg/mL
same,MPI,[19],100
same,IC50,[20],> 50 µg/mL
same,IC80,[20],> 50 µg/mL
same,MPI,[20],29
same,IC50,[21],> 50 µg/mL
same,IC80,[21],> 50 µg/mL
same,MPI,[21],22
same,IC50,[22],> 50 µg/mL
same,IC80,[22],> 50 µg/mL
same,MPI,[22],18
same,IC50,[23],> 50 µg/mL
same,IC80,[23],> 50 µg/mL
same,MPI,[23],24
same,IC50,[24],> 50 µg/mL
same,IC80,[24],> 50 µg/mL
same,MPI,[24],0
same,IC50,[25],> 50 µg/mL
same,IC80,[25],> 50 µg/mL
same,MPI,[25],0
same,IC50,[26],1.59 µg/mL
same,IC80,[26],11.6 µg/mL
same,MPI,[26],91
same,IC50,[27],> 50 µg/mL
same,IC80,[27],> 50 µg/mL
same,MPI,[27],35
same,IC50,[28],17.7 µg/mL
same,IC80,[28],> 50 µg/mL
same,MPI,[28],61
same,IC50,[29],0.114 µg/mL
same,IC80,[29],0.83 µg/mL
same,MPI,[29],97
same,IC50,[30],0.01 µg/mL
same,IC80,[30],0.04 µg/mL
same,MPI,[30],100
same,IC50,[31],0.004 µg/mL
same,IC80,[31],0.014 µg/mL
same,MPI,[31],100
same,IC50,[32],0.178 µg/mL
same,IC80,[32],1.17 µg/mL
same,MPI,[32],100
